Test results from publication PMC2643056 (Molecular cell, 2008).

Biological target: T1, His6-Dsk2 (S. cerevisiae, UniProt P48510 1-373)
T1 sequence (looked up): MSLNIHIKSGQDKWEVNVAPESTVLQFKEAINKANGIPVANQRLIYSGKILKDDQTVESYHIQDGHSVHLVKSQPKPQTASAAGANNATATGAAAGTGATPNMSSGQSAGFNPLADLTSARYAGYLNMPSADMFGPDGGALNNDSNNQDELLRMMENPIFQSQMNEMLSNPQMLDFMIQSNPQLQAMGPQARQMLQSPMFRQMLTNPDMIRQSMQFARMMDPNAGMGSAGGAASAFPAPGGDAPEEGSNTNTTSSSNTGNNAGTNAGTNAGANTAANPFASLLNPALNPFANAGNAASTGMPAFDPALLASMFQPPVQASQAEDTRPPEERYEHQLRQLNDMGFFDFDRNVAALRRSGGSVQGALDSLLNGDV
Assay: far-Western, overlay or dot blot

binding result: binds
B1: recombinant Rpn10, full length (natural protein, S. cerevisiae, UniProt P38886 1-268, looked up)
chain: MVLEATVLVIDNSEYSRNGDFPRTRFEAQIDSVEFIFQAKRNSNPENTVGLISGAGANPRVLSTFTAEFGKILAGLHDTQIEGKLHMATALQIAQLTLKHRQNKVQHQRIVAFVCSPISDSRDELIRLAKTLKKNNVAVDIINFGEIEQNTELLDEFIAAVNNPQEETSHLLTVTPGPRLLYENIASSPIILEEGSSGMGAFGGSGGDSDANGTFMDFGVDPSMDPELAMALRLSMEEEQQRQERLRQQQQQQDQPEQSEQPEQHQDK
